Laboratory results published in the RNAGym collection of RNA variant scans (doi:10.7554/elife.80360).

B1: HDV Ribozyme (parent)
chain: GGCCGGCAUGGUCCCAGCCUCCUCGCUGGCGCCGGCUGGGCAACAUUCCGAGGGGACCGUCCCCUCGGUAAUGGCGAAUGGGACCCA

Variants of: B1
Assay: self-cleavage, relative activity (ratio to wild type); higher = more cleavage; co-transcriptional
In the case of A42U G74A, the self-cleavage is reported as 0.343.
Variant A42U G74C has a self-cleavage of 0.17.
A42U C44G gave a self-cleavage of 0.464.
A42U G55U showed a self-cleavage of 0.597.
Work on A42U G55A yielded a self-cleavage of 0.604.
Work on A42U C48G yielded a self-cleavage of 0.646.
With A42C A45U the self-cleavage was 0.306.
Variant A42G A77U has a self-cleavage of 0.
Variant A42U U72C has a self-cleavage of 0.508.
For A42U U72A, the self-cleavage was 0.511.
Variant C41U C58U has a self-cleavage of 1.17.
With C41U C48U the self-cleavage was 1.02.
In the case of A42C G50A, the self-cleavage is reported as 0.325.
A42U C64U showed a self-cleavage of 0.594.
Work on A43C G67C yielded a self-cleavage of 0.243.
A42C G59C showed a self-cleavage of 0.397.
A42C U65A gave a self-cleavage of 0.155.
For A42C U65G, the self-cleavage was 0.831.
For A43C G53A, the self-cleavage was 0.554.
Work on A43C G53C yielded a self-cleavage of 0.63.
For A43C G53U, the self-cleavage was 0.425.
Variant A43C U47A has a self-cleavage of 0.506.
A43C G68U gave a self-cleavage of 0.264.
A42G C44U showed a self-cleavage of 0.639.
A42C C62A gave a self-cleavage of 0.365.
Work on C41U C66G yielded a self-cleavage of 0.926.
For C41U G68C, the self-cleavage was 0.636.
In the case of C41U G68A, the self-cleavage is reported as 0.743.
For A42G C61G, the self-cleavage was 0.831.
In the case of A42G C61U, the self-cleavage is reported as 0.656.
Variant A42G G52U has a self-cleavage of 0.501.
A43C C86U gave a self-cleavage of 0.649.
A42G G55A showed a self-cleavage of 0.485.
With A42G G55C the self-cleavage was 0.675.
For A43C U69A, the self-cleavage was 0.532.
Variant A43G A56C has a self-cleavage of 0.587.
Work on A43G A56U yielded a self-cleavage of 0.688.
Variant A42C U46C has a self-cleavage of 0.214.
C41U U60A showed a self-cleavage of 0.815.
For A43C A70C, the self-cleavage was 0.35.
With A42U G73A the self-cleavage was 0.403.
For A42G G67U, the self-cleavage was 0.565.
For C41U C61A, the self-cleavage was 1.12.
For C41U C62U, the self-cleavage was 0.92.
With C41U C63A the self-cleavage was 0.983.
For A42U C49U, the self-cleavage was 0.502.
With A43C A87U the self-cleavage was 0.59.
A43C C57A gave a self-cleavage of 0.785.
For A42C U72C, the self-cleavage was 0.107.
Work on A42G C64G yielded a self-cleavage of 0.332.
With A42G C64A the self-cleavage was 0.302.
Variant A42G C58A has a self-cleavage of 0.655.
A42U A87G gave a self-cleavage of 0.389.
With A43C C84G the self-cleavage was 0.237.
Work on A43C C84A yielded a self-cleavage of 0.332.
Variant A42G C75A has a self-cleavage of 0.0554.
With A42C A78G the self-cleavage was 0.317.
C41U C49A showed a self-cleavage of 0.563.
With C41U C49G the self-cleavage was 0.317.
A42G C57G showed a self-cleavage of 0.453.
With A42U U60C the self-cleavage was 0.554.
With C41U G52U the self-cleavage was 0.868.
A42G A71C gave a self-cleavage of 0.151.
In the case of A43C C44U, the self-cleavage is reported as 0.923.
Work on A43C C44G yielded a self-cleavage of 0.458.
With A42C A56C the self-cleavage was 0.356.
With A42C A56U the self-cleavage was 0.332.
Variant A43C C58A has a self-cleavage of 0.394.
For A42G G73C, the self-cleavage was 0.
Work on A43C G80C yielded a self-cleavage of 0.194.
For A43C G80U, the self-cleavage was 0.0825.
For A42U C85A, the self-cleavage was 0.415.
A42U C84G gave a self-cleavage of 0.198.
For A42G U69A, the self-cleavage was 0.554.
With A42G U69G the self-cleavage was 0.554.
A42G C48U showed a self-cleavage of 0.525.
With A42C U69G the self-cleavage was 0.246.
A42C U69C gave a self-cleavage of 0.399.
Variant A42C G55C has a self-cleavage of 0.243.
With A42C G52C the self-cleavage was 0.359.
Variant A42U C75A has a self-cleavage of 0.0405.
In the case of A42U U65G, the self-cleavage is reported as 0.457.
C41U A71G showed a self-cleavage of 1.06.
Variant A43C G54A has a self-cleavage of 0.415.
With C41U U46G the self-cleavage was 1.02.
In the case of A42C C75G, the self-cleavage is reported as 0.0852.
In the case of A42C C75U, the self-cleavage is reported as 0.148.
With A43G A71C the self-cleavage was 1.01.
In the case of A42C C85A, the self-cleavage is reported as 0.18.
With A42C G73A the self-cleavage was 0.245.
A42U C86G gave a self-cleavage of 0.519.
In the case of A42U C86A, the self-cleavage is reported as 0.492.
A42U G81C gave a self-cleavage of 0.0426.
Work on A42U G81A yielded a self-cleavage of 0.0378.
Variant A43C A78U has a self-cleavage of 0.0415.
Work on A43C G55A yielded a self-cleavage of 0.511.
A42G C84U showed a self-cleavage of 0.525.
With A42G C84A the self-cleavage was 0.554.
Variant A42C C57A has a self-cleavage of 0.373.
Work on C41U A83G yielded a self-cleavage of 0.712.
For A42G G76A, the self-cleavage was 0.631.
Work on A42C C44G yielded a self-cleavage of 0.217.
A42C G76U showed a self-cleavage of 0.734.
With A42U A45U the self-cleavage was 0.554.
With A42G G81U the self-cleavage was 0.0346.
Variant C41U C57G has a self-cleavage of 1.09.
With A42G G80U the self-cleavage was 0.095.
Variant A42C G81C has a self-cleavage of 0.0978.
For A42U A77G, the self-cleavage was 0.464.
A42U A77U gave a self-cleavage of 0.0739.
A42U G80A showed a self-cleavage of 0.16.
C41U U65C showed a self-cleavage of 0.954.
C41U U65G gave a self-cleavage of 0.976.
Variant A42U A56G has a self-cleavage of 0.306.
In the case of A42G A51G, the self-cleavage is reported as 0.571.
Work on C41U C84U yielded a self-cleavage of 0.765.
A43C G50A gave a self-cleavage of 0.469.
With A42C C48G the self-cleavage was 0.229.
Variant A42G U79G has a self-cleavage of 0.359.
A42G U79C gave a self-cleavage of 0.0386.
Work on A42U G76U yielded a self-cleavage of 0.745.
For A42G G59U, the self-cleavage was 0.608.
Work on C41U A87U yielded a self-cleavage of 1.
A42G A78G showed a self-cleavage of 0.
Variant A43C G73C has a self-cleavage of 0.309.
In the case of A42G U47A, the self-cleavage is reported as 0.391.
For A42G G53U, the self-cleavage was 0.817.
Work on A42G G53A yielded a self-cleavage of 0.496.
C41U C75G gave a self-cleavage of 0.208.
With A43C G76A the self-cleavage was 0.554.
For C41U G55U, the self-cleavage was 1.
Work on A42C G53C yielded a self-cleavage of 0.297.
For A42C G53U, the self-cleavage was 0.231.
A42G G50A showed a self-cleavage of 0.446.
Variant A42C G54A has a self-cleavage of 0.271.
Work on A43G A70G yielded a self-cleavage of 0.914.
A43C A56U showed a self-cleavage of 0.584.
For A42G U65C, the self-cleavage was 0.643.
With A43C A77C the self-cleavage was 0.0923.
With A43C A77U the self-cleavage was 0.
For A43C U72A, the self-cleavage was 0.151.
A43C U72G gave a self-cleavage of 0.293.
For A42C C84U, the self-cleavage was 0.224.
With A42C C84G the self-cleavage was 0.
Variant A42G C62G has a self-cleavage of 0.469.
Work on C41U G54A yielded a self-cleavage of 0.958.
C41U U79G gave a self-cleavage of 0.369.
In the case of C41U U79A, the self-cleavage is reported as 0.98.
A43C C49G showed a self-cleavage of 0.287.
A42G G68C showed a self-cleavage of 0.271.
A42U A43G showed a self-cleavage of 0.201.
With A43C C61G the self-cleavage was 0.359.
Variant A43C C61U has a self-cleavage of 0.434.
Variant A43C C61A has a self-cleavage of 0.306.
A42G U46C gave a self-cleavage of 0.369.
In the case of A42U U79G, the self-cleavage is reported as 0.222.
A42U U79C showed a self-cleavage of 0.0216.
A42U U79A showed a self-cleavage of 0.145.
A42C C58U gave a self-cleavage of 0.322.
Variant A42U U47G has a self-cleavage of 0.615.
Work on A42C C64G yielded a self-cleavage of 0.277.
Variant C41U G80C has a self-cleavage of 0.188.
Work on C41U G80U yielded a self-cleavage of 0.174.
Work on A42C A83G yielded a self-cleavage of 0.129.
Variant A42C A83U has a self-cleavage of 0.122.
For C41U G76C, the self-cleavage was 0.861.
C41U G76U showed a self-cleavage of 0.897.
